The term Kd denotes the equilibrium constant for the complex coming apart. High values mean a looser complex, low ones a tighter complex. One may read the stoichiometry N as the number of molecules, sites or subunits per partner or assembly.

This note sets out measurements from PMC5947699, “Cloning, purification and structure determination of the HIV integrase-binding domain of lens epithelium-derived growth factor” (Acta Crystallographica. Section F, Structural Biology …, 2018).

This data set concerns the molecule itself. Briefly: AUC; sedimentation velocity, twofold dilution series starting from 6.5 mg/ml, 50 000 rev/min, 20°C, absorbance (280 nm) and interference optics, c(s) model in SEDFIT; buffer similar to that used for crystallization; monomer to dimer; self-association not saturated.

B1: HIV integrase-binding domain (IBD) of lens epithelium-derived growth factor (LEDGF)/p75, His tag cleaved (domain or fragment, human)
chain: GGSMGSGGGGSGGGGSGGGGAAAMETSMDSRLQRIHAEIKNSLKIDNLDVNRCIEALDELASLQVTMQQAQKHTEMITTLKKIRRFKVSQVIMEKSTMLYNKFKNMFLVGE
notes: 24-amino-acid linker ending with methionine that precedes Glu345 of the IBD; left on the protein after TEV cleavage (ENLYFQ/G); Intact mass 11 882 Da measured against 11 881.66 Da calculated; The linker was not visible in the electron density; also called IBD protein; free IBD; source: E. coli B834 (DE3), purified (IMAC, SEC, TEV cleavage, reverse IMAC) for crystallization; E. coli C41 (DE3), …
B1: the Kd is ~2 mM and the “stoichiometry N” value was 2.
